Test results: IntAct's records for PubMed 22246185

B1: Apoptotic protease-activating factor 1 (Homo sapiens), O14727 (parent)
chain: MDAKARNCLLQHREALEKDIKTSYIMDHMISDGFLTISEEEKVRNEPTQQQRAAMLIKMILKKDNDSYVSFYNALLHEGYKDLAALLHDGIPVVSSSSGKDSVSGITSYVRTVLCEGGVPQRPVVFVTRKKLVNAIQQKLSKLKGEPGWVTIHGMAGCGKSVLAAEAVRDHSLLEGCFPGGVHWVSVGKQDKSGLLMKLQNLCTRLDQDESFSQRLPLNIEEAKDRLRILMLRKHPRSLLILDDVWDSWVLKAFDSQCQILLTTRDKSVTDSVMGPKYVVPVESSLGKEKGLEILSLFVNMKKADLPEQAHSIIKECKGSPLVVSLIGALLRDFPNRWEYYLKQLQNKQFKRIRKSSSYDYEALDEAMSISVEMLREDIKDYYTDLSILQKDVKVPTKVLCILWDMETEEVEDILQEFVNKSLLFCDRNGKSFRYYLHDLQVDFLTEKNCSQLQDLHKKIITQFQRYHQPHTLSPDQEDCMYWYNFLAYHMASAKMHKELCALMFSLDWIKAKTELVGPAHLIHEFVEYRHILDEKDCAVSENFQEFLSLNGHLLGRQPFPNIVQLGLCEPETSEVYQQAKLQAKQEVDNGMLYLEWINKKNITNLSRLVVRPHTDAVYHACFSEDGQRIASCGADKTLQVFKAETGEKLLEIKAHEDEVLCCAFSTDDRFIATCSVDKKVKIWNSMTGELVHTYDEHSEQVNCCHFTNSSHHLLLATGSSDCFLKLWDLNQKECRNTMFGHTNSVNHCRFSPDDKLLASCSADGTLKLWDATSANERKSINVKQFFLNLEDPQEDMEVIVKCCSWSADGARIMVAAKNKIFLFDIHTSGLLGEIHTGHHSTIQYCDFSPQNHLAVVALSQYCVELWNTDSRSKVADCRGHLSWVHGVMFSPDGSSFLTSSDDQTIRLWETKKVCKNSAVMLKQEVDVVFQENEVMVLAVDHIRRLQLINGRTGQIDYLTEAQVSCCCLSPHLQYIAFGDENGAIEILELVNNRIFQSRFQHKKTVWHIQFTADEKTLISSSDDAEIQVWNWQLDKCIFLRGHQETVKDFRLLKNSRLLSWSFDGTVKVWNIITGNKEKDFVCHQGTVLSCDISHDATKFSSTSADKTAKIWSFDLLLPLHELRGHNGCVRCSAFSVDSTLLATGDDNGEIRIWNVSNGELLHLCAPLSEEGAATHGGWVTDLCFSPDGKMLISAGGYIKWWNVVTGESSQTFYTNGTNLKKIHVSPDFKTYVTVDNLGILYILQTLE

Variants of: B1
Details: with 1433e_human YWHAE

effect of a mutation on the interaction	Variant
decreasing interaction	S357A

Variants of: B1
Details: with 1433e_human YWHAE
Remark: another data set of the same source

effect of a mutation on the interaction	Variant
decreasing interaction	S268A
